Assay results as given in patent publication US20250340659A1 (PETMEDIX, published 2025).

T1: canine OX40L, full length membrane form, expressed on HEK293 cells (canine)
T1 construct: also called OX40L expressing HEK; HEK OX40L cells
T1 chain: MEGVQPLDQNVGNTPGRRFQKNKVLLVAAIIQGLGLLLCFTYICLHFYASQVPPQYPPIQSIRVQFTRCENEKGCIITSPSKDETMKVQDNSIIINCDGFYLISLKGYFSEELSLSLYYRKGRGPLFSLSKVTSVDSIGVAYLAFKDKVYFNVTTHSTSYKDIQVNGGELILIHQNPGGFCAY


Assays:
[1] = target: T1, canine OX40L, full length membrane …; assay: flow cytometry
Procedure: (§1) CHO supernatants diluted in FACS buffer (PBS containing 3% FBS) at 1, 5 or 10 μg/ml were used to screen for their binding capacity to canine OX40L using a cell-based assay. In brief, HEK293 or MEF cells (or any other commonly used cell lines) expressing canine OX40L at the cell surface are incubated with 100 μll of FACS buffer containing the candidate antibody for 30′ on ice. Cells are washed with 150 μl FACS buffer followed by centrifugation at 300 g for 3 min. The cell pellet is resuspended in FACS buffer containing a 1:1000 dilution of a fluorescently labelled secondary antibody recognising the canine Fc region of the test antibody for 30 min in the dark, followed by washing with 150 μl FACS buffer. Cells are resuspended in FACS buffer and flow cytometry performed using either a […] cytometer, followed by data analysis using FlowJo (FIG. 6 and Table 4).

[2] = target: T1, canine OX40L, full length membrane …; assay: cell-based or functional assay
[3] = target: T1, canine OX40L, full length membrane …; assay: flow cytometry, OX40L HEK minus WT HEK
Procedure: as §1

Binder | GEO mean OX40L expressing HEK [1] | % Signal Inhibition Average [2] | % Signal Inhibition Rep1 [2] | % Signal Inhibition Rep2 [2] | % Signal Inhibition Rep3 [2] | GEO mean difference [3]
PMX085 (antibody, V domains shown, also called PMX85) VH: EVKLVESGGDLVKPEGSLRLSCVVSGFTFSRYGMSWVRQAPGKGLQWVAYISSDGRSSSYTDAVQGRFTISSDNAKNTLYLQMNSLTTEDTAVYYCAKLGRGFNFNFWGQGTLVTVSS VL: SYVLTQLPSKNVTLKQPAHITCGGDNIGSKSVHWYQQKLGQAPVLIIYYDSSRPTGIPERFSGANSGNTATLTISGALAEDEADYYCQVWDSSASVFGGGTHLTVL | 839000 | 46.9% | 43.8% | 56.2% | 40.8% | 826000
PMX086 (antibody, V domains shown) VH: EVQLVESGGDLVKPGGSLRLSCVASGFTFSSYHMSWVRQAPGKGLQWVAFINSAESSTTYADAVKGRFTISRDNAKNTLYLQMNSLRAEDTAVYYCAGGYIWTHFDYWGQGTLVTVSS VL: SYVLTQLPSVSVTLRQTARITCGGDIIGSKSVYWYQQNLGQAPVLIIYRDTNRPTGIPERFSGASSGNTATLTISGALAEDEADYYCQVWDSSTSVFGGGTHLTVL | 857000 | 18.3% | 5.85% | 35.1% | 14% | 849000
PMX110 (antibody, V domains shown) VH: EVQLVESGGDLVRPGGSLRLSCVASGFTFSSYHMSWVRQAPGKGLQWVAFINSGGSSTTYADVVRGRFTISRDYAKNTLYLQMNSLRAEDTAVYYCASGSILTHFDYWGQGTLVTVSS VL: SFVLTQLPSVSVTLRQTARITCGGDSVGSKSVYWYQQKLGQAPVLIIYRDSNRPTGIPERFSGASSGNTATLTISGALAEDEADYYCQVWDNSNKAMFGGGTHLTVL | 31900 | 37.4% | 55.2% | 43.1% | 13.7% | 28400

Results, then the binder that gave them:

GEO mean OX40L expressing HEK [1] | % Signal Inhibition Average [2] | % Signal Inhibition Rep1 [2] | % Signal Inhibition Rep2 [2] | % Signal Inhibition Rep3 [2] | GEO mean difference [3] | Binder
1.05e+06 | 32.6% | 29.8% | 46.2% | 21.6% | 1.04e+06 | PMX087 (antibody, V domains shown) VH: EVHLVESGGDLVKPGGSLRLSCVASGFTFSNYHMSWVRQAPGKGLQWVAFINSGGSGTSYADAVKGRFTISRDYAKSTLYLQMNSLRAEDTAVYYCASGYIWTHFDYWGQGTLVTVSS VL: SYVLTQLPSVSVTLRQTARITCGGDIIGSKNVYWYQQKLGQAPILIIYRDSNRPTGIPERFSGASSGNTATLTISGALAEDEADYYCQVWDSSTSVFGGGTHLTVL
58800 | -5.31% | 7.14% | 20.9% | -44% | 55200 | PMX107 (antibody, V domains shown) VH: AVQLVESGGDLVRPGGSLRLSCVASGFTFSSYHMNWVRQAPGKGLQWVAFINSGGSSTTYADVVRGRFTISRDYAKNTLFLQMNSLRAEDTAVYYCAIVSIWTHFDYWGQGTLVTVSS VL: SFVLTQLPSVSVTLRQTARITCGGDIIGSKNVYWYQQRLGQAPVLILYRDTNRPTGIPERFSGASSGNTATLTISGALAEDEADYYCQVWDNSNKAMFGGGTHLTVL
783000 | 7.21% | 17% | 3.51% | 1.17% | 775000 | PMX088 (antibody, V domains shown) VH: EVQLVESGGDLVKPGGSLRLSCVASGFTFNTYHMNWVRQAPGKGLHWVAFINSGGTGTGYSDTVKGRFTISRDYAKNTLYLQMNSLRAEDTAVYYCVSGSIWTHFDYWGQGTLVTVSS VL: SYVLTQLPSVSMTLRQTAHITCGGDIIGSKSVYWYQQKLGQAPVLIIYRDTNRPTGIPERFSGASSGNTATLTISGALAEDEADYYCQVWDSNTQAVFGGGTHLTVL
